In US20030119023:

Assays:
Assay in all cases: EMSA
[1] = biological target: ZIF-flex-GAC (linker TG(GSG)5ERP) (artificial) (UniProt P08046); details: all sites approximately 50 pM
[2] = biological target: ZIF-F4-GAC (TFIIIA finger 4 linker) (artificial) (UniProt P08046); details: apparent Kd
[3] = tested on: ZIF-ZnF-GAC (serine-finger linker) (artificial); details: apparent Kd
[4] = biological target: ZIF-F4mut-GAC (ZIF-mutF4-GAC; TFIIIA finger 4 flanked by GERP linkers) (artificial) (UniProt P08046); details: apparent Kd
[5] = biological target: ZIF-mutZnF-GAC (serine finger flanked by NIKICV and TQQLP) (artificial) (UniProt P08046)
[6] = tested on: TF(1-4)-ZIF (TFIIIA F1-4 fused to Zif268) (artificial); details: apparent Kd; half-site
[7] = tested on: 2x3F ZIF-GAC (artificial); details: apparent Kd; half-site
[8] = biological target: TF(1-3)-flex-ZIF (linker TG(GSG)5ERP) (artificial) (UniProt P03001+P08046); details: apparent Kd
3x2F ZGS (artificial) = details: apparent Kd; half-site; hard to quantify
Chain of 3x2F ZGS (artificial) (chain, as listed by the source): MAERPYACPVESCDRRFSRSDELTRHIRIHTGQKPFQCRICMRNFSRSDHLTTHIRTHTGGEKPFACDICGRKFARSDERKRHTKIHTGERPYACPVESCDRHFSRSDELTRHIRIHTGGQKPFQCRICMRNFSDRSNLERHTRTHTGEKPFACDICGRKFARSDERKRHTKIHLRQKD

Sequence | Kd [1] [nM] | Kd [2] [nM] | Kd [3] [nM] | other results
GCGGACGCGGCGTGGGCG (double strand) [bsC (123456, ZM)] | 0.05 | 0.011 | – | –
GCGGACGCGNGCGTGGGCG (double strand) [Z1M] | 0.05 | 0.006 | 0.004 | –
GCGGACGCGNNGCGTGGGCG (double strand) [Z2M] | 0.05 | 0.007 | 0.006 | –
GCGGACGCGNNNGCGTGGGCG (double strand) [Z3M] | 0.05 | 0.005 | 0.004 | –
GCGGACGCGNNNNGCGTGGGCG (double strand) [Z4M] | 0.05 | 0.013 | 0.003 | –
GCGGACGCGNNNNNGCGTGGGCG (double strand) [Z5M] | 0.05 | 0.016 | 0.008 | Kd [4]: 0.013 nM; Kd [5]: 0.018 nM
GCGGACGCGNNNNNNGCGTGGGCG (double strand) [Z6M] | 0.05 | 0.017 | 0.007 | Kd [4]: 0.013 nM; Kd [5]: 0.011 nM
GCGGACGCGNNNNNNNGCGTGGGCG (double strand) [Z7M] | 0.05 | 0.005 | 0.003 | –
GCGGACGCGNNNNNNNNGCGTGGGCG (double strand) [Z8M] | 0.05 | 0.005 | 0.006 | –
GCGGACGCGNNNNNNNNNGCGTGGGCG (double strand) [Z9M] | 0.05 | 0.005 | 0.004 | –
GCGGACGCGNNNNNNNNNNGCGTGGGCG (double strand) [Z10M] | 0.05 | 0.004 | 0.003 | –
GCGTGGGCG (double strand) [bsA (ZIF site)] | – | – | – | Kd [6]: 2 nM; Kd [7]: 2.2 nM; Kd ([3]; half-site): 2 nM; Kd ([8]; half-site): 1.8 nM; Kd ([2]; half-site): 2.2 nM; Kd (3x2F ZGS (artificial)): 110 nM
GCGTGGGCGAGTACCTGGATGGGAGAC (double strand) [TF7Z (bsC1)] | – | – | – | Kd [8]: 0.057 nM
GCGTGGGCGGTACCTGGATGGGAGAC (double strand) [TF6Z (bsB1)] | – | – | – | Kd [8]: 0.068 nM
GCGTGGGCGTACCTGGATGGGAGAC (double strand) [TF5Z (bsA1)] | – | – | – | Kd [8]: 0.063 nM
GCGTGGGCGTAGTACCTGGATGGGAGAC (double strand) [TF8Z (bsD1)] | – | – | – | Kd [8]: 0.061 nM
GCGTGGGCGTTAGTACCTGGATGGGAGAC (double strand) [TF9Z (bsE1)] | – | – | – | Kd [8]: 0.058 nM
